This passage reports Fluorescence Index (FI) results from patent publication US20030027246A1, “Immunogenic peptides derived from prostate-specific membrane antigen (PSMA) and uses thereof” (priority 2000, published 2003).

The target in this test is membrane-bound HLA-A0201 molecule on T2 cells (human). The test is described as follows: T2 cell HLA-A0201 stabilisation at 125.0 µM peptide, BB7.2 staining, flow cytometry. The following applies: remark: other sources report otherwise. On the technique in general: A flow cytometer gives signals particle by particle.

Consider ELAHYDVLL [CLP-330], for which the Fluorescence Index (FI) came to 0.7 FI.
In turn, VLAGGFFLL [CLP-328] registered a Fluorescence Index (FI) of 1.3 FI.
